The target of assay [1] is T1, Y1 receptor-Gc (rat Y1 receptor fused at the C terminus to sfGFP fragment 155-238) (rat, UniProt P21555 1-382).
T1 construct: neuropeptide Y receptor type 1, rat; cDNA transferred to the pCMV FLAG vector for transfection; also called Y1-Gc; receptor of the Y1 A1, Y1 A2 and Y1 A2Δ cell lines; source: HEK293T, stably transfected into β-arrestin-Gn clonal lines; live or fixed cells, or membranes
T1 sequence (looked up): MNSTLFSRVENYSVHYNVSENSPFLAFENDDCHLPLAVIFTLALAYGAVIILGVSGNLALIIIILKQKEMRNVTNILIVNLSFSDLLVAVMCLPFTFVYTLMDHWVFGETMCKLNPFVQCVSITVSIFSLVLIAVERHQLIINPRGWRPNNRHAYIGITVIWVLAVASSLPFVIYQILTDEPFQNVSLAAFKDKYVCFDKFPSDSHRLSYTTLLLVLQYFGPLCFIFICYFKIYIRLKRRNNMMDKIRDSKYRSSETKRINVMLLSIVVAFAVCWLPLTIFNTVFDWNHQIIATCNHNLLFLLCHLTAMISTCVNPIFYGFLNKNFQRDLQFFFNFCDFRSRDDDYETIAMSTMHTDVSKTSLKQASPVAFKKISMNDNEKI
The experiment in a line: split reporter (BiFC, NanoBiT); sfGFP BiFC in stable HEK293 cells in 96 well plates, NPY 0.1 nM-3 μM for 60 min at 37 °C, fixed, confocal platereader images quantified by granularity analysis (average granule intensity/cell). The following applies: partners not purified.

Assay [2] deals with T1, Y1 receptor-Gc (rat Y1 receptor fused …). The assay is described as follows: radioligand binding; as a1 but on membranes of HEK293T BiFC cell lines co-expressing β-arrestin1-Gn (Y1 A1, Y16A A1); 16 pM [125I]PYY. The following applies: one partner purified.
The target in assay [3] is T2, Y1 6A receptor-Gc (rat, UniProt P21555 1-382, S352A | T353A | T356A | S359A | T361A | S362A).
T2 construct: neuropeptide Y receptor type 1, rat, with six C tail serine/threonine residues changed to alanine; also called Y16A-Gc; receptor of the Y16A A1 and Y16A A2 cell lines; source: HEK293 cells stably co-expressing β-arrestin-Gn; live cells or membranes
T2 sequence (looked up): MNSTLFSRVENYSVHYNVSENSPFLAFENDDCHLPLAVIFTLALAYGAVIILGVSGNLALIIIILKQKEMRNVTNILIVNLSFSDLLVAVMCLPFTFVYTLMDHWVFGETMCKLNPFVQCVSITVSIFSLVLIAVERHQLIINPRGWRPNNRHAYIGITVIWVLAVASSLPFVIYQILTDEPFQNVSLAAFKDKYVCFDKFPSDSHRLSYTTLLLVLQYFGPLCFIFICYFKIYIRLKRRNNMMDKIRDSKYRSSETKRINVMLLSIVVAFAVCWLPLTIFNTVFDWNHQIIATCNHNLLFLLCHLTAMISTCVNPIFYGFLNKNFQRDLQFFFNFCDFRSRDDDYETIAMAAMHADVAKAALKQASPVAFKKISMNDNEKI
The description is as above. Particulars: one partner purified.

Assay [4] concerns the target T1, Y1 receptor-Gc (rat Y1 receptor fused …). The assay is described as follows: radioligand binding; as a1 but on membranes of HEK293T BiFC cell lines co-expressing β-arrestin2-Gn (Y1 A2, Y16A A2); 16 pM [125I]PYY. Particulars: one partner purified.
The target in assay [5] is T2, Y1 6A receptor-Gc. Described as above. The following applies: one partner purified.
Assay [6] concerns the target T1, Y1 receptor-Gc (rat Y1 receptor fused …). The assay is described as follows: radioligand binding; as a1 but on membranes of the HEK293T BiFC cell line co-expressing β-arrestin2 ΔLIEFD-Gn (Y1 A2Δ); 16 pM [125I]PYY. Particulars: one partner purified.
Assay [7] concerns the target T3, Y1 receptor-sfGFP (rat NPY Y1 receptor, N-terminal FLAG, C-terminal superfolder GFP) (rat, UniProt P21555 1-382).
T3 construct: neuropeptide Y receptor type 1, rat; sfGFP here is enhanced GFP with S30R, Y39N, M153T and V163A (wild type GFP numbering), lacking the start Met; linker LRPLE between receptor C terminus and sfGFP; also called Y1sfGFP; Y1-sfGFP; source: membranes or live cells; not shown: sfGFP via linker LRPLE, C-terminal, kept
T3 sequence (looked up): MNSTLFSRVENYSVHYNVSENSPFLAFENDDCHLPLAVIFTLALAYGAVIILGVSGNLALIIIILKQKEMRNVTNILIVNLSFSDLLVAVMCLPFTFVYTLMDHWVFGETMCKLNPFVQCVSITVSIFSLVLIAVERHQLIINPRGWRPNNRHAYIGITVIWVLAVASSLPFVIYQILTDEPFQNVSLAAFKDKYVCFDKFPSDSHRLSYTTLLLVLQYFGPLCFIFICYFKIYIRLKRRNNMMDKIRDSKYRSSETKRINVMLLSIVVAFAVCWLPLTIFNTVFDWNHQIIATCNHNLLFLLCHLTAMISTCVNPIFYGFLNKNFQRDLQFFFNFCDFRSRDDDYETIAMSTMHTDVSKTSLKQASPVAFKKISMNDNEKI
The assay is described as follows: radioligand binding; competition with [125I]PYY (16 pM for Y1, 10 pM for Y2 receptors) on membranes of tetracycline-induced 293TR Y receptor-sfGFP cell lines; 90 min at 21 °C; 25 mM HEPES, 2.5 mM CaCl2, 1.0 mM MgCl2, 0.1% BSA, 0.1 mg/ml bacitracin, pH 7.4; IC50 converted to pKi by the Cheng-Prusoff equation. The following applies: one partner purified.

The target of the next assay is T4, Y1 6A receptor-sfGFP (rat, UniProt P21555 1-382, S352A | T353A | T356A | S359A | T361A | S362A).
T4 construct: neuropeptide Y receptor type 1, rat, with six C tail serine/threonine residues changed to alanine; also called Y16AsfGFP; source: membranes or live cells; not shown: sfGFP via linker LRPLE, C-terminal, kept
T4 sequence (looked up): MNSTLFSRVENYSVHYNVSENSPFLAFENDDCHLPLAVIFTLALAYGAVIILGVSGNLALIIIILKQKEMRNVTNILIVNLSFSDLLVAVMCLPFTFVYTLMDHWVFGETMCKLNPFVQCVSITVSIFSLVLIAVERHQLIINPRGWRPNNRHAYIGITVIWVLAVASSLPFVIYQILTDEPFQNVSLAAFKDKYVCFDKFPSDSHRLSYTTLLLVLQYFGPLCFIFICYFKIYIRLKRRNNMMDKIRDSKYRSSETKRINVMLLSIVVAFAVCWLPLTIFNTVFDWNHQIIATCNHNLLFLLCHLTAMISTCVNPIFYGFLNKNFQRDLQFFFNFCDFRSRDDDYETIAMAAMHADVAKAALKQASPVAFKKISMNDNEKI
The description is as above. Particulars: one partner purified.

Two molecules from paper PMC3793875, “Fluorescence correlation spectroscopy, combined with bimolecular fluorescence complementation, reveals the effects of β-arrestin complexes and endocytic targeting on the membrane mobility of neuropeptide Y receptors” (Biochimica et Biophysica Acta, 2012) can be followed below.

B1: β-arrestin1-Gn (human β-arrestin1 fused at the C terminus to sfGFP fragment 2-172) (natural protein, UniProt P49407 1-418, looked up)
chain: MGDKGTRVFKKASPNGKLTVYLGKRDFVDHIDLVDPVDGVVLVDPEYLKERRVYVTLTCAFRYGREDLDVLGLTFRKDLFVANVQSFPPAPEDKKPLTRLQERLIKKLGEHAYPFTFEIPPNLPCSVTLQPGPEDTGKACGVDYEVKAFCAENLEEKIHKRNSVRLVIRKVQYAPERPGPQPTAETTRQFLMSDKPLHLEASLDKEIYYHGEPISVNVHVTNNTNKTVKKIKISVRQYADICLFNTAQYKCPVAMEEADDTVAPSSTFCKVYTLTPFLANNREKRGLALDGKLKHEDTNLASSTLLREGANREILGIIVSYKVKVKLVVSRGGLLGDLASSDVAVELPFTLMHPKPKEEPPHREVPENETPVDTNLIELDTNDDDIVFEDFARQRLKGMKDDKEEEEDGTGSPQLNNR
notes: β-arrestin1, human, full length with the stop codon removed; The keyword list gives Gn as sfGFP 2-173, the methods as 2-172; also called A1; not shown: Gn (sfGFP fragment 2-172) via linker QRPLE, C-terminal, kept
Regarding B1, in assay [1], the “pEC50 of NPY in stimulating the BiFC response (β-arrestin recruitment)” value came to 8.3.

B2: peptide YY (PYY), unlabelled (peptide)
peptide: not shown
notes: neither species nor supplier is stated; surmised
In general, pKi refers to the negative decadic logarithm of the Ki, by convention in mol/L. For B2, the pKi in assay [2] was determined as 9.45; with Y1 6A receptor-Gc [3] it was 9.3; in assay [4], 9.54; with Y1 6A receptor-Gc [5], 9.48; in assay [6], 9.44; in assay [7] it was 9.5. Moreover, the pKi with Y1 6A receptor-sfGFP came to 9.22.
